Measured values: patent US20220348635A1, “COMPOSITIONS AND METHODS FOR NEUROLOGICAL DISEASES” (Coda Biotherapeutics, Inc., priority 2019, published 2022)

Experiments:
[1] = Sensitivity of parental chimera versus wild type α7-nAChR, ABT-126
From the text: (§1) To generate LGICs that conduct anion current following exposure to non-native small molecule agonists of the human α7-nAChR, chimeric ligand gated ion channel (LGIC) receptors comprising the ligand binding domain derived from the human α7 nicotinic acetylcholine receptor (α7-nAChR) and the chloride-conducting ion pore domain derived from the human GlyR1α were genetically engineered.

[2] = Sensitivity of parental chimera versus wild type α7-nAChR, nicotine
From the text: as §1

[3] = Sensitivity of parental chimera versus wild type α7-nAChR, AZD-0328
From the text: as §1

[4] = Sensitivity of parental chimera versus wild type α7-nAChR, Facinicline/RG3487
From the text: as §1

[5] = Sensitivity of parental chimera versus wild type α7-nAChR, TC-6987
From the text: as §1

[6] = Sensitivity of parental chimera versus wild type α7-nAChR, acetylcholine
From the text: as §1

[7] = YFP quench plate reader assay, response to ABT-126; format: cell-based; settings: LX293T YFP reporter cells
From the text: (§2) FIGS. 1A-FIG. 1G show the heat maps of the percent quench of YFP fluorescence in the mutants of the engineered chimeric receptor SEQ ID NO:33 that comprise the indicated double amino acid substitutions following stimulation by various doses of either acetylcholine or the indicated non-native ligand. Ligand doses are written across the top of each chart. Numbers in the boxes indicate the absolute amount of quench observed. Dark blue=80% maximal quench of YFP reporter. Light blue=quench of 30-80%. White=10-30%. Orange=0-10% quench. Negative values represent non-responders that have a negative quench due to a stimulation artifact. SEQ ID NO:29 is a non-responding chimera used as a negative control. Abbreviations for non-native ligand names: abt: ABT-126; ach: acetylcholine; apn: APN-1125; azd: AZD-0328; brd: TC-5619; fac: RG3487; tc6: TC-6987.
(§3) Tables 2-8 below lists percent quench of YFP fluorescence following stimulation of the indicated engineered receptor by various doses of either acetylcholine or the non-native ligand.
(§4) To screen these mutant LGICs for those having novel response profiles to ligands, an anion reporter assay was developed to assess the function of channels in a high throughput format. In this assay, cells expressing a YFP reporter whose fluorescence is quenched in the presence of anion are transfected with DNA encoding the channel of interest. Upon exposure to ligand, channels that are activated will flux anion, resulting in a dose-dependent quench of the YFP that can be detected on a plate reader.
(§5) Lenti-X 293T cells (LX293T, Clontech) were maintained in DMEM containing 10% FBS and 1% penicillin/streptomycin (Invitrogen). […] Two days before assay, cells were split at a density of 20,000 cells/well in a 96-well tissue culture plate coated with poly-d lysine (Thermo Scientific). The next day, the cells were transiently transfected with 0.1 μg of DNA per well using standard Fugene protocol (Promega). On the day of assay, cells were washed 2 times in 1× extracellular solution (1×ECS: 140 mM NaCl, 5 mM KCl, 1 mM MgCl2, 2 mM CaCl2, 10 mM HEPES, 10 mM glucose, pH 7.2, mOsms 300). After the last wash, 100 μL of 1×ECS was added to the wells and the plate was incubated at 37° C. for 30 min. While incubating the plate, the drugs were diluted to a 2× concentration in 1×ECS-NaI (same components as 1×ECS except the 140 mM NaCl was replaced by 140 mM NaI). The plates were then read on a Flexstation3 (Molecular Devices). Each well, 8 wells at a time, of the plate is read for 2 min using a Flexstation3 (Molecular Devices) as follows: 1) a baseline YFP fluorescence is read for 17 sec, 2) 100 μL of ligand is added, and 3) the changes in YFP fluorescence are then measured every 1.3 sec for the remaining time.
(§6) FIG. 1 provides heat maps of the percent quench of YFP fluorescence following stimulation by various doses of either acetylcholine or the non-native ligand as indicated in the Figure. A positive fluorescence signal, as indicated by blue shaded cells, indicate that the engineered receptor is activated by the non-native ligand at that concentration. […] Table 12 lists the EC50 values for the indicated double mutants to acetylcholine (Ach) and TC-5619 as determined from the YFP fluorescence plate reader experiment.

[8] = High throughput electrophysiology in HEK293T cells, RG-3487; format: cell-based
Description: To confirm the EC50s determined by plate reader as well as develop a better understanding of maximum current flow, the engineered receptors were subjected to high throughput electrophysiology system, as described below. For HEK293T studies, cDNAs encoding ion channels were cloned into pcDNA3.1 using standard recombination techniques. HEK293T cells from Clontech (Lenti-X™ 293T Cell Line) were cultured in DMEM supplemented with 10% FBS and 1% Pen/Strep to 40-50% confluence using standard cell culture protocols, transfected with ion channel plasmids at a concentration of 18 μg per 15 cm dish using Fugene 6, and grown for an additional 24 hours. Cells were then assayed on a electrophysiological system (IonFluxHT and/or Mercury, Fluxion Biosciences) in which dose-response relationships may be assessed through a microfluidics-based platform for establishing whole cell configurations. […] Data were then analyzed off-line using custom Python scripts to convert data to .csv format, re-plot traces, and apply QC measurements to reject unstable recordings (i.e. thresholding based on access resistance and/or standard deviation in baseline, as well as artifact rejection). Peak currents were then calculated and population data were fit using a 4-parameter logistic equation as described by the Hill Equation. […]

[9] = YFP quench plate reader assay, response to RG3487; format: cell-based; settings: LX293T YFP reporter cells
From the text: as §2, §3, §4, §5, §6

[10] = YFP quench plate reader assay, response to acetylcholine; format: cell-based; settings: LX293T YFP reporter cells
From the text: as §2, §3, §4, §5, §6

[11] = High throughput electrophysiology in HEK293T cells, AZD-0328; format: cell-based
In short: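 Engineered receptors transiently expressed in HEK293T cells, recorded 24 h post-transfection by automated whole-cell patch clamp at −60 mV, CsCl intracellular, pH 7.2 extracellular buffer. Progressive agonist doses applied for 1 s; peak currents fit to a 4-parameter Hill equation for EC50.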

[12] = YFP quench plate reader assay, response to TC-6987; format: cell-based; settings: LX293T YFP reporter cells
From the text: as §2, §3, §4, §5, §6

[13] = YFP quench plate reader assay, response to APN-1125; format: cell-based; settings: LX293T YFP reporter cells
From the text: as §2, §3, §4, §5, §6

[14] = YFP quench plate reader assay, response to AZD-0328; format: cell-based; settings: LX293T YFP reporter cells
From the text: as §2, §3, §4, §5, §6

[15] = YFP quench plate reader assay, response to TC-5619; format: cell-based; settings: LX293T YFP reporter cells
From the text: as §2, §3, §4, §5, §6

B1: SEQ ID NO: 33: parental CHRNA7/GLRA1 chimera: α7-nAChR ligand binding domain with GlyRα1 Cys-loop, fused to GlyRα1 ion pore domain (protein)
chain: MRCSPGGVWLALAASLLHVSLQGEFQRKLYKELVKNYNPLERPVANDSQPLTVYFSLSLLQIMDVDEKNQVLTTNIWLQMSWTDHYLQWNVSEYPGVKTVRFPDGQIWKPDILLYNSADERFDATFHTNVLVNSSGHCQYLPPGIFKSSCPMDLKNFPMDVQTCKLKFGSWSYGGWSLDLQMQEADISGYIPNGEWDLVGIPGKRSERFYECCKEPYPDVTFTVTMRRRMGYYLIQMYIPSLLIVILSWISFWINMDAAPARVGLGITTVLTMTTQSSGSRASLPKVSYVKAIDIWMAVCLLFVFSALLEYAAVNFVSRQHKELLRFRRKRRHHKSPMLNLFQEDEAGEGRFNFSAYGMGPACLQAKDGISVKGANNSNTTNPPPAPSKSPEEMRKLFIQRAKKIDKISRIGFPMAFLIFNMFYWIIYKIVRREDVHNQ
modifications: synthetic sequence of chimeric LGIC
- sensitivity to ABT-126 compared to wild type α7-nAChR [1]: approximately as sensitive
- fold less sensitive to nicotine than wild type [2]: ~2 fold
- fold more sensitive to AZD-0328 than wild type [3]: approximately 3 fold
- fold more sensitive to Facinicline/RG3487 than wild type [4]: ~10 fold
- sensitivity to TC-6987 compared to wild type α7-nAChR [5]: approximately as sensitive
- type of agonist activity of TC-6987 on the receptor ([5]; similar to wild type): partial agonist activity
- sensitivity to acetylcholine compared to wild type α7-nAChR [6]: approximately as sensitive

B2: L131D, S172D in SEQ ID NO: 33: engineered chimeric α7-nAChR/GlyRα1 LGIC receptor: SEQ ID NO: 33 with substitutions L131D and S172D (protein)
chain: MRCSPGGVWLALAASLLHVSLQGEFQRKLYKELVKNYNPLERPVANDSQPLTVYFSLSLLQIMDVDEKNQVLTTNIWLQMSWTDHYLQWNVSEYPGVKTVRFPDGQIWKPDILLYNSADERFDATFHTNVDVNSSGHCQYLPPGIFKSSCPMDLKNFPMDVQTCKLKFGSWDYGGWSLDLQMQEADISGYIPNGEWDLVGIPGKRSERFYECCKEPYPDVTFTVTMRRRMGYYLIQMYIPSLLIVILSWISFWINMDAAPARVGLGITTVLTMTTQSSGSRASLPKVSYVKAIDIWMAVCLLFVFSALLEYAAVNFVSRQHKELLRFRRKRRHHKSPMLNLFQEDEAGEGRFNFSAYGMGPACLQAKDGISVKGANNSNTTNPPPAPSKSPEEMRKLFIQRAKKIDKISRIGFPMAFLIFNMFYWIIYKIVRREDVHNQ
modifications: synthetic sequence of chimeric LGIC
- percent quench of YFP fluorescence, 50 nM abt ([7]; 50 nM ABT-126): −3.19%
- percent quench of YFP fluorescence, 100 nM abt ([7]; 100 nM ABT-126): 7.58%
- percent quench of YFP fluorescence, 300 nM abt ([7]; 300 nM ABT-126): −1.65%
- percent quench of YFP fluorescence, 1 uM abt ([7]; 1 uM ABT-126): 31.29%
- fold increased potency to RG-3487 compared to wild type receptor [8]: at least 10 fold
- percent quench of YFP fluorescence, 30 nM fac ([9]; 30 nM RG3487): 24.15%
- percent quench of YFP fluorescence, 300 nM fac ([9]; 300 nM RG3487): 80.17%
- percent quench of YFP fluorescence, 10 uM fac ([9]; 10 uM RG3487): 81.34%
- percent quench of YFP fluorescence, 30 uM fac ([9]; 30 uM RG3487): 79.9%
- percent quench of YFP fluorescence, 10 uM ach ([10]; 10 uM acetylcholine): −12.91%
- percent quench of YFP fluorescence, 100 uM ach ([10]; 100 uM acetylcholine): −20.88%
- percent quench of YFP fluorescence, 1 mM ach ([10]; 1 mM acetylcholine): 79.85%
- percent quench of YFP fluorescence, 3 mM ach ([10]; 3 mM acetylcholine): 79.98%
- fold increased potency towards AZD-0328 compared to wild type receptor [11]: at least 10 fold
- percent quench of YFP fluorescence, 1 uM tc6 ([12]; 1 uM TC-6987): −18.24%
- percent quench of YFP fluorescence, 10 uM tc6 ([12]; 10 uM TC-6987): −23.06%
- percent quench of YFP fluorescence, 500 uM tc6 ([12]; 500 uM TC-6987): −19.3%
- percent quench of YFP fluorescence, 100 nM apn ([13]; 100 nM APN-1125): 71.72%
- percent quench of YFP fluorescence, 1 uM apn ([13]; 1 uM APN-1125): 77.26%
- percent quench of YFP fluorescence, 30 uM apn ([13]; 30 uM APN-1125): 77.5%
- percent quench of YFP fluorescence, 100 nM azd ([14]; 100 nM AZD-0328): 51.44%
- percent quench of YFP fluorescence, 300 nM azd ([14]; 300 nM AZD-0328): 77.12%
- percent quench of YFP fluorescence, 30 uM azd ([14]; 30 uM AZD-0328): 79.26%
- percent quench of YFP fluorescence, 1 nM brd ([15]; 1 nM TC-5619): −1.24%
- percent quench of YFP fluorescence, 3 nM brd ([15]; 3 nM TC-5619): 0.25%
- percent quench of YFP fluorescence, 10 nM brd ([15]; 10 nM TC-5619): −2.57%
- percent quench of YFP fluorescence, 30 nM brd ([15]; 30 nM TC-5619): 0.78%
- percent quench of YFP fluorescence, 100 nM brd ([15]; 100 nM TC-5619): 4.51%
- percent quench of YFP fluorescence, 300 nM brd ([15]; 300 nM TC-5619): 30.97%
- percent quench of YFP fluorescence, 1 uM brd ([15]; 1 uM TC-5619): 44.41%
